For 59 variants, abundance fitness results are on record in the Human Domainome abundance scans (Beltran et al. 2025).

The labels stand for the following.
B1: E3 ubiquitin-protein ligase Midline-1, residues 172 to 214; numbered along this chain, O15344 (parent)
chain: GLMCLEHEDEKVNMYCVTDDQLICALCKLVGRHRDHQVAALSE

± gives the uncertainty stated by the source.

In the data set the parent is B1. In words: abundance fitness (aPCA) (normalised: wild type 0, dead -1); higher = more abundant; growth selection in yeast, the domain comes from the species named. The following applies: Homo sapiens.
GLMCLEHEVEKVNMYCVTDDQLICALCKLVGRHRDHQVAALSE [D9V]: the abundance fitness was -0.086 ± 0.049.

Consider GLMCLEHEEEKVNMYCVTDDQLICALCKLVGRHRDHQVAALSE [D9E], for which the abundance fitness is -0.378 ± 0.087. Turning to GLMCLEHESEKVNMYCVTDDQLICALCKLVGRHRDHQVAALSE [D9S], the abundance fitness worked out at 0.02 ± 0.059. GLMCLEHEDEKVNMYCRTDDQLICALCKLVGRHRDHQVAALSE [V17R]: the abundance fitness worked out at 0.176 ± 0.048. The same measure for GLMCLEHEDEKVNMYCATDDQLICALCKLVGRHRDHQVAALSE [V17A]: 0.172 ± 0.049; for GLMCLEHEDEKVNMYCVTDDQLICALCKLVGRLRDHQVAALSE [H33L]: -0.829 ± 0.1.

Regarding GLMCLEHEDEKVNMYCVTDDQLICALCKLVGRNRDHQVAALSE [H33N], the abundance fitness was -0.42 ± 0.14. With GLMCLTHEDEKVNMYCVTDDQLICALCKLVGRHRDHQVAALSE [E6T], the abundance fitness was found to be 0.001 ± 0.15. The figure for GLMCLHHEDEKVNMYCVTDDQLICALCKLVGRHRDHQVAALSE [E6H] is 0.063 ± 0.21. The figure for GLMCLGHEDEKVNMYCVTDDQLICALCKLVGRHRDHQVAALSE [E6G] is -0.438 ± 0.055. Turning to GLMCLWHEDEKVNMYCVTDDQLICALCKLVGRHRDHQVAALSE [E6W], the abundance fitness is -0.374 ± 0.083. The same measure for GLMCLEHEDEKVNMYCVTDDQLICALCKLVGRHRDHQVAALSD [E43D]: -0.239 ± 0.2; for GLMCLEHEDEKVNMYCVTDDQLICALCKLVGRHRDHQVAALSP [E43P]: -0.076 ± 0.1; for GLMCLEHEDEKVNMYCVTDDQLICALCKLVGRHRDHQVAALSS [E43S]: 0.058 ± 0.1. With GLMCWEHEDEKVNMYCVTDDQLICALCKLVGRHRDHQVAALSE [L5W], the abundance fitness is -0.482 ± 0.1. The figure for GLMCQEHEDEKVNMYCVTDDQLICALCKLVGRHRDHQVAALSE [L5Q] is -0.155 ± 0.11; for GLMCLEHEDEKVNMYCVTDDQLICALCKLVGRHRDHQVAALHE [S42H] it is 0.089 ± 0.069.

For GLMCLEHEDEKVNMYCVTDDQLICALCKLVGRHRDHQVAALIE [S42I], the abundance fitness was -0.446 ± 0.13. The figure for GLMCLEHEDEKVNMYCVTDDQLICALCKLVGRHRDHQVAALFE [S42F] is -0.656 ± 0.27; for GLMCLEHEDEKVNMYCVTDDQLICALCKLVGRHRDHQVAALDE [S42D] it is 0.209 ± 0.07. The same measure for GLMCLEHEDEKVNMYCVTDDQLICALCKLVGRHRDHQVAALTE [S42T]: 0.064 ± 0.075. With GLMCLEHEDEKVNMYCVTDDQLICALCKLVGRHRDHQVAALAE [S42A], the abundance fitness was -0.021 ± 0.051.

For GLMCLEHEDEKVNMYCVTDDQLICALCKLVGRHRDHQVAALCE [S42C], the abundance fitness was found to be 0.012 ± 0.084.

For the variant GLMCLEHEDEKVNMYCVTDDQLICAMCKLVGRHRDHQVAALSE [L26M], the abundance fitness is 0.031 ± 0.078. The same measure for GLMCLEHEDEKVNMYCVWDDQLICALCKLVGRHRDHQVAALSE [T18W]: -0.532 ± 0.094; for GLMCLEHEDEKVNMYCVYDDQLICALCKLVGRHRDHQVAALSE [T18Y]: -0.482 ± 0.23. On to GLMCLEHEDEKVNMYCVNDDQLICALCKLVGRHRDHQVAALSE [T18N], for which the abundance fitness was -0.048 ± 0.45. Regarding GLMCLEHEDEKVVMYCVTDDQLICALCKLVGRHRDHQVAALSE [N13V], the abundance fitness is -0.396 ± 0.055. For GLMCLEHEDEKVYMYCVTDDQLICALCKLVGRHRDHQVAALSE [N13Y], the abundance fitness is -0.108 ± 0.16.

For the variant GLMCLEHEDEKVDMYCVTDDQLICALCKLVGRHRDHQVAALSE [N13D], the abundance fitness is -0.071 ± 0.092. The figure for GLMCLEHEDEKVNMYCVTDDQLKCALCKLVGRHRDHQVAALSE [I23K] is -0.312 ± 0.098; for GLMCLEHEDEKVNMYCVTDDQLTCALCKLVGRHRDHQVAALSE [I23T] it is -0.1 ± 0.075.

GLMCLEHEDEKVNMLCVTDDQLICALCKLVGRHRDHQVAALSE [Y15L]: the abundance fitness was determined as 0.014 ± 0.063. For the variant GLMCLEHEDEWVNMYCVTDDQLICALCKLVGRHRDHQVAALSE [K11W], the abundance fitness is -0.288 ± 0.067. Turning to GLMCLEHTDEKVNMYCVTDDQLICALCKLVGRHRDHQVAALSE [E8T], the abundance fitness was determined as 0.398 ± 0.12.

As to GLMCLEHLDEKVNMYCVTDDQLICALCKLVGRHRDHQVAALSE [E8L], the abundance fitness was determined as 0.108 ± 0.069. Turning to GLMCLEHPDEKVNMYCVTDDQLICALCKLVGRHRDHQVAALSE [E8P], the abundance fitness was 0.186 ± 0.081. GLPCLEHEDEKVNMYCVTDDQLICALCKLVGRHRDHQVAALSE [M3P]: the abundance fitness was -0.309 ± 0.093. Take GLECLEHEDEKVNMYCVTDDQLICALCKLVGRHRDHQVAALSE [M3E]: the abundance fitness is -0.332 ± 0.1. The same measure for GEMCLEHEDEKVNMYCVTDDQLICALCKLVGRHRDHQVAALSE [L2E]: 0.611 ± 0.056; for GAMCLEHEDEKVNMYCVTDDQLICALCKLVGRHRDHQVAALSE [L2A]: 0.483 ± 0.058.

For the variant GTMCLEHEDEKVNMYCVTDDQLICALCKLVGRHRDHQVAALSE [L2T], the abundance fitness came out at 0.51 ± 0.069. With GLMCLEHEDEKVNMYCVTDCQLICALCKLVGRHRDHQVAALSE [D20C], the abundance fitness was -0.308 ± 0.098. Turning to GLMCLEHEDNKVNMYCVTDDQLICALCKLVGRHRDHQVAALSE [E10N], the abundance fitness amounted to 0.093 ± 0.21.

Turning to GLMCLEHEDQKVNMYCVTDDQLICALCKLVGRHRDHQVAALSE [E10Q], the abundance fitness was -0.181 ± 0.072. The figure for GLMCLEHEDTKVNMYCVTDDQLICALCKLVGRHRDHQVAALSE [E10T] is -0.204 ± 0.15; for GLMCLEHEDKKVNMYCVTDDQLICALCKLVGRHRDHQVAALSE [E10K] it is 0.063 ± 0.087. In the case of GLMCLEHEDLKVNMYCVTDDQLICALCKLVGRHRDHQVAALSE [E10L], the abundance fitness was -0.214 ± 0.061. For GLMCLEHEDSKVNMYCVTDDQLICALCKLVGRHRDHQVAALSE [E10S], the abundance fitness is -0.079 ± 0.098. The figure for GLMCLEHEDEKVNMYCVTDDQLICALCKLVGRHRCHQVAALSE [D35C] is -0.142 ± 0.12; for GLMCLEHEDEKVNMYCVTDDQLICALCKLVGRHRDHQVAWLSE [A40W] it is -0.406 ± 0.064. The figure for GLMCLEHEDEKVNMYCVTDDQLICALCKLVGRHRDHQVAVLSE [A40V] is -0.236 ± 0.06; for GLMCLEHEDEKVNMYCVTDDQLICALCKLVGRHRDHQVALLSE [A40L] it is -0.158 ± 0.063. The figure for GLMCLEHEDEKVNMYCVTDDQLICALCKLVGRHRDHQVARLSE [A40R] is -0.019 ± 0.053; for GLMCLEHEDEKVNMYCVTDDQLICALCKLVGRHRDHQVAGLSE [A40G] it is 0.046 ± 0.047; for GLMCLEHEDEKVNMYCVTDDQLICALCKLVGRHRDHQVASLSE [A40S] it is 0.065 ± 0.07. Regarding GLMCLEHEDEKVNMYCVTDDQLICILCKLVGRHRDHQVAALSE [A25I], the abundance fitness was -0.266 ± 0.11.

Turning to GLMCLEHEDEKVNMYCVTDDQLICHLCKLVGRHRDHQVAALSE [A25H], the abundance fitness is 0.188 ± 0.093. The same measure for GLMCLEHEDEKVNMYCVTDDQLICPLCKLVGRHRDHQVAALSE [A25P]: -0.124 ± 0.11.
